Results from patent US20190055314A1 (ADAGENE, published 2019).
Substitutions are numbered along the chain they refer to. Where two headings read alike, the source gives them in different places. One block for each binder: values may come before it.

Key:
[1] = molecular target: T1, mouse CD137 protein (Biacore) (mouse, UniProt P20334 24-178, limits assumed); experiment: SPR Biacore
T1 construct: Construct used as SPR analyte not described
T1 sequence: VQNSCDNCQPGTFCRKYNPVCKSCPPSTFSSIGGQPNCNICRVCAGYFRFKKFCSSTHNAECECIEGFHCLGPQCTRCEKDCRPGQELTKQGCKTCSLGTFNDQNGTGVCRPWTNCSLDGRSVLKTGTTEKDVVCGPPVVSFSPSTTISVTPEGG

[2] = molecular target: T2, mouse CD137 fused with human FC fragment (mouse, UniProt P20334 24-178, limits assumed); experiment: ELISA, coated CD137-Fc
T2 construct: also called mouse CD137-Fc; not shown: human Fc fragment
T2 sequence: T1 sequence

[3] = molecular target: T3, full-length human CD137 on the cell surface (human, UniProt Q07011 18-255); experiment: flow cytometry, HEK293F
T3 construct: also called Human WT

[4] = molecular target: T4, Hu_GQ109AA (human, UniProt Q07011 18-255); experiment: flow cytometry, HEK293F
T4 construct: On HEK293F

[5] = molecular target: T5, Hu_EL111AA (human, UniProt Q07011 18-255); experiment: flow cytometry, HEK293F
T5 construct: On HEK293F

[6] = molecular target: T6, Hu_TN137AA (human, UniProt Q07011 18-255); experiment: flow cytometry, HEK293F
T6 construct: On HEK293F

[7] = molecular target: T7, human CD137-His6 (Sino Biological #10041-H08H) (human, UniProt Q07011 24-186); experiment: SPR Biacore, IgG captured
T7 construct: Bought; also called human CD137 protein; not shown: His6 tag

[8] = molecular target: T3, full-length human CD137 on the cell …; experiment: cell-based or functional assay
[9] = molecular target: T8, Hu_CRD2 (human, UniProt Q07011 46-86, limits assumed); experiment: flow cytometry, yeast display [Cont.]
T8 construct: also called human CD137 CRD2
T8 chain: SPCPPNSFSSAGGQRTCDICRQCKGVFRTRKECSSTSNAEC

[10] = molecular target: T3, full-length human CD137 on the cell …; experiment: flow cytometry, yeast display [Cont.]
[11] = molecular target: T9, full-length mouse CD137 on the cell surface (mouse, UniProt P20334 24-178); experiment: flow cytometry, yeast display [Cont.]
T9 sequence: T1 sequence

[12] = molecular target: T10, Hu_CRD3 (human, limits assumed); experiment: flow cytometry, yeast display [Cont.]
T10 construct: also called human CD137 CRD3
T10 chain: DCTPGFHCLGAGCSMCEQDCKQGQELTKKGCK

[13] = molecular target: T11, Hu_CRD4 (human, UniProt Q07011 119-159, limits assumed); experiment: flow cytometry, yeast display [Cont.]
T11 construct: also called human CD137 CRD4
T11 chain: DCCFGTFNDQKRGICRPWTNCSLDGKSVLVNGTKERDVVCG

[14] = molecular target: T12, Hu_CRD1-CRD2 (human, UniProt Q07011 24-86, limits assumed); experiment: flow cytometry, yeast display [Cont.]
T12 construct: also called two CRD units (CRD1-CRD2) of human CD137

[15] = molecular target: T13, Hu_CRD2-CRD3 (human, UniProt Q07011 46-118, limits assumed); experiment: flow cytometry, yeast display [Cont.]
T13 construct: also called two CRD units (CRD2-CRD3) of human CD137

[16] = molecular target: T14, Hu_CRD1-CRD2-CRD3 (human, UniProt Q07011 24-118, limits assumed); experiment: flow cytometry, yeast display [Cont.]
T14 construct: also called three CRD units (CRD1-CRD2-CRD3) of human CD137

[17] = molecular target: T15, Hu_CRD3-CRD4 (human, UniProt Q07011 87-159, limits assumed); experiment: flow cytometry, yeast display [Cont.]
T15 construct: also called two CRD units (CRD3-CRD4) of human CD137

[18] = molecular target: T16, Hu_CRD2-CRD3-CRD4 (human, UniProt Q07011 46-159, limits assumed); experiment: flow cytometry, yeast display [Cont.]
T16 construct: also called three CRD units (CRD2-CRD3-CRD4) of human CD137

[19] = molecular target: T17, rat CD137 on the cell surface (rat, UniProt Q4W8J3 24-258); experiment: flow cytometry, HEK293F cells expressing CD137
T17 sequence: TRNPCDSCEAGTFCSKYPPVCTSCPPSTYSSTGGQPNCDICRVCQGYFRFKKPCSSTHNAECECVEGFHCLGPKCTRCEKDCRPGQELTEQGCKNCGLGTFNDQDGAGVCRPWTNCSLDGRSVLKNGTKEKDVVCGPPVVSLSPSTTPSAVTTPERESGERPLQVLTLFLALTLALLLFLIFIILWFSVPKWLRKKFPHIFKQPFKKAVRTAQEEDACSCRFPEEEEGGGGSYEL

[20] = molecular target: T3, full-length human CD137 on the cell …; experiment: flow cytometry, HEK293F cells expressing CD137 or mutant
[21] = molecular target: T9, full-length mouse CD137 on the cell …; experiment: as above
[22] = molecular target: T18, Hu_GTF34AAA (human, UniProt Q07011 18-255); experiment: flow cytometry, HEK293F cells expressing CD137 or mutant [Cont.]
T18 construct: On HEK293F; also called GFT34AAA
T18 chain: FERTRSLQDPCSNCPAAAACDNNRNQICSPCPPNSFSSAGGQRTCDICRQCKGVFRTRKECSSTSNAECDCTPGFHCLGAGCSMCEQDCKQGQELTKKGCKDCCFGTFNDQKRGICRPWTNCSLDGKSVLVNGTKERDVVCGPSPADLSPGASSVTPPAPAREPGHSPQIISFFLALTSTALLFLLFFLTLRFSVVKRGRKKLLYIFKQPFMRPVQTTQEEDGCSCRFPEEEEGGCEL

[23] = molecular target: T19, Hu_FSS53AAA (human, UniProt Q07011 18-255); experiment: as above
T19 construct: On HEK293F
T19 chain: T18 chain with A17G, A18T, A19F, F36A, S37A, S38A

[24] = molecular target: T20, Hu_FH92AA (human, UniProt Q07011 18-255); experiment: as above
T20 construct: On HEK293F

[25] = molecular target: T21, Hu_FN125AA (human, UniProt Q07011 18-255); experiment: as above
T21 construct: On HEK293F

[26] = molecular target: T22, Hu_PW135AA (human, UniProt Q07011 18-255); experiment: as above
T22 construct: On HEK293F

[27] = molecular target: T23, Hu_GT150AA (human, UniProt Q07011 18-255); experiment: as above
T23 construct: On HEK293F

[28] = molecular target: T24, CD137-hisFc fusion protein (Sino Biological Cat 10041-H03H) (human, UniProt Q07011 24-186); experiment: BLI Octet, Fab
T24 construct: Bought; also called recombinant human CD137 (fused with human Fc and His tag); not shown: His tag and human Fc

[29] = molecular target: T24, CD137-hisFc fusion protein (Sino …); experiment: BLI Octet, Fab; remark: listed apart in the source
[30] = molecular target: T2, mouse CD137 fused with human FC fragment; experiment: ELISA, Fab captured by anti-human IgG (Fab specific), CD137-Fc added, anti-human Fc-HRP

- binding result [1]: no binding
- binding result [2]: no binding
- Kd [3]: 3.3 nM
- binding result [4]: binds
- binding result [5]: binds
- binding result [6]: binds
- Kd [7]: 9.6 nM
- NFκB reporter: EC50 (nM) With Cross-Linker [8]: 2.51 nM
- NFκB reporter: EC50 (nM) Without Cross-Linker [8]: 1.27 nM
- % in upper right quadrant [9]: 0.26%
- Mean [9]: 4050
- % in upper right quadrant [10]: 32.2%
- Mean [10]: 93600
- % in upper right quadrant [11]: 0.4%
- Mean [11]: 13100
- % in upper right quadrant [12]: 0.22%
- Mean [12]: 13900
- % in upper right quadrant [13]: 0.15%
- Mean [13]: 6770
- % in upper right quadrant [14]: 51.4%
- Mean [14]: 26000
- % in upper right quadrant [15]: 0.12%
- Mean [15]: 12800
- % in upper right quadrant [16]: 57.2%
- Mean [16]: 46500
- % in upper right quadrant [17]: 0.18%
- Mean [17]: 3460
- % in upper right quadrant [18]: 0.42%
- Mean [18]: 29500
- % in upper right quadrant [20]: 27.8%
- Mean [22]: 8620
- Mean [23]: 16700
- binding result [24]: binds
- Mean [25]: 23100
- Mean [26]: 53900
- Mean [27]: 21300
B1: AC1121 (antibody, V domains shown)
VH: QVQLQQWGAGLLKPSETLSLTCAVYGGSFSGYYWSWIRQSPEKGLEWIGEINHGGYVTYNPSLESRVTISVDTSKNQFSLKLSSVTAADTAVYYCARDYGPGNYDWYFDLWGRGTLVTVSS
VL: EIVLTQSPATLSLSPGERATLSCRASQSVSSYLAWYQQKPGQAPRLLIYDASNRATGIPARFSGSGSGTDFTLTISSLEPEDFAVYYCQQRSNWPPALTFGGGTKVEIK
- binding result [19]: no binding (tested: 100 nM (text paragraph 220))
- binding result [21]: no binding (tested: 100 nM (as in Example 5))

- binding result [1]: no binding
- binding result [2]: no binding
- % in upper right quadrant [11]: 0.59%
- Mean [11]: 16200
- % in upper right quadrant [12]: 0.22%
- Mean [12]: 12700
- % in upper right quadrant [21]: 0.005%
B2: AC1097 (antibody, V domains shown)
VH: EVQLVQSGAEVKKPGESLRISCKGSGYSFSTYWISWVRQMPGKGLEWMGKIYPGDSYTNYSPSFQGQVTISADKSISTAYLQWSSLKASDTAMYYCARGYGIFDYWGQGTLVTVSS
VL: SYELTQPPSVSVSPGQTASITCSGDNIGDQYAHWYQQKPGQSPVLVIYQDKNRPSGIPERFSGSNSGNTATLTISGTQAMDEADYYCATYTGFGSLAVFGGGTKLTVL
- binding result [19]: no binding (tested: 100 nM (text paragraph 220))

- Kd [28]: 7.29 nM
- koff [28]: 0.0034 s⁻¹
- kon [28]: 466000 M⁻¹ s⁻¹
- Kd [29]: 7.3 nM
- koff [29]: 0.0034 s⁻¹
- kon [29]: 470000 M⁻¹ s⁻¹
- binding result [30]: no binding
B3: Fab 5351 (Fab, V domains shown)
VH: EVQLVESGGGLVQPGGSLRLSCAASGYSITSGHYWAWIRQAPGKGLEWVSSISGYGSTTYYADSVKGRFTISRDNSKNTLYLQLNSLRAEDTAVYYCARGGSDAVLGDWFAYWGQGTLVTVSS
VL: DIQLTQSPSSLSASVGDRVTITCRASQGIGSFLAWYQQKPGKAPKLLIYDASNLETGVPSRFSGSGSGTDFTLTISSLQPEDFATYYCQQGYYLWTFGQGTKVEIKR
notes: Fab from E. coli; also called VH25/VL25
